Measurements as given in paper PMC6952207, “Development and Evaluation of a Novel Protein-Based Assay for Specific Detection of KPC β-Lactamases from Klebsiella pneumoniae Clinical Isolates” (mSphere, 2020).

B1: β-lactamase inhibitory protein variant BLIP^K74T/W112D (natural protein)
chain: AGVMTGAKFTQIQFGMTRQQVLDIAGAENCETGGSFGDSIHCRGHAAGDYYAYATFGFTSAAADAKVDSKSQETLLAPSAPTLTLAKFNQVTVGMTRAQVLATVGQGSCTTDSEYYPAYPSTAGVTLSLSCFDVDGYSSTGFYRGSAHLWFTDGVLQGKRQWDLV
notes: the variant was found there by mutagenesis and genetic screening; also called BLIP mutant; source: E. coli RB791 (plasmid pGR32), purified (Co2+ Talon resin, Superdex75 gel filtration); not shown: His6, N-terminal, kept

What was measured:
Assay in all cases: enzyme inhibition assay (nitrocefin hydrolysis); β-lactamase (0.2 to 1 nM) mixed with increasing concentrations of BLIP^K74T/W112D in 50 mM sodium phosphate pH 7.0, 100 μg/ml BSA, room temperature, 20 min; initial nitrocefin hydrolysis rates at 482 nm fitted to the Morrison tight binding inhibitor equation
[1] = target: KPC-4 β-lactamase (UniProt Q9F663)
[2] = target: KPC-5 β-lactamase (UniProt Q9F663)
[3] = target: KPC-8 β-lactamase (UniProt Q9F663)
[4] = target: CTX-M-15 β-lactamase (UniProt Q9EXV5)
[5] = target: KPC-6 β-lactamase (UniProt Q9F663)
[6] = target: KPC-3 β-lactamase (UniProt Q9F663)
[7] = target: CTX-M-14 β-lactamase (enzyme of the Ki assay) (UniProt Q9L5C7)
[8] = target: TEM-1 β-lactamase (enzyme of the Ki assay) (UniProt P62593)
[9] = target: KPC-9 β-lactamase (UniProt Q9F663)
[10] = target: KPC-7 β-lactamase (UniProt Q9F663)
[11] = target: T1, KPC-2 β-lactamase (purified) (UniProt Q9F663 30-293); details: both partners purified
T1 construct: KPC-2 carbapenemase (class A β-lactamase); also called KPC-2 carbapenemase; source: E. coli BL21(DE3) (pET-28a+), purified (Co2+ Talon resin, Superdex75 gel filtration)

[12] = target: T2, OXA-48 carbapenemase (UniProt Q6XEC0 23-265); details: both partners purified
T2 construct: OXA-48 carbapenemase (β-lactamase)

Molecule | Ki [1] [nM] | Ki [2] [nM] | Ki [3] [nM] | Ki [4] [nM] | Ki [5] [nM] | Ki [6] [nM] | Ki [7] [nM] | Ki [8] [nM] | Ki [9] [nM] | Ki [10] [nM] | Ki [11] [nM] | Ki [12] [nM]
β-lactamase inhibitory protein variant BLIP^K74T/W112D (from UniProt P35804 37-201) (natural protein) | 1.2 | 1.5 | 1.6 | 433 | 1.3 | 2.5 | 908 | 6240 | 0.7 | 1.5 | – | –
B1 | – | – | – | – | – | – | – | – | – | – | 2.4 ± 0.4 | 1180 ± 129
